B1: VHH1_C001 (VHH)
VHH: EVQLVESGGGLVQPGGSLRLSCAASPRTFQTYFMGWFRQAPGKELEWVSVINWSGGTSYYKDSVKGRFTISRDNSKNTLYLQMNSLRAEDTAVYYCAAKGSGTYDREGEYDYWGQGTLVTVSS
B2: VHH1_C002 (VHH)
VHH: EVQLLESGGGLVQPGGSLRLSCAASGFTFSDYHMSWVRQAPGKGLEWVSGILNTGLSPTYAATVTGRFTISRDNSKNTLYLQMNSLRAEDTAVYYCAQGYYRATPSQANRGQGTLVTVSS

Target: native B7H3 on cells (UniProt Q5ZPR3)
Test: flow cytometry on cells with native B7H3 (taken as H358), anti-His-tag iFluor 488 detection

Chain of native B7H3 on cells (Q5ZPR3 29-534): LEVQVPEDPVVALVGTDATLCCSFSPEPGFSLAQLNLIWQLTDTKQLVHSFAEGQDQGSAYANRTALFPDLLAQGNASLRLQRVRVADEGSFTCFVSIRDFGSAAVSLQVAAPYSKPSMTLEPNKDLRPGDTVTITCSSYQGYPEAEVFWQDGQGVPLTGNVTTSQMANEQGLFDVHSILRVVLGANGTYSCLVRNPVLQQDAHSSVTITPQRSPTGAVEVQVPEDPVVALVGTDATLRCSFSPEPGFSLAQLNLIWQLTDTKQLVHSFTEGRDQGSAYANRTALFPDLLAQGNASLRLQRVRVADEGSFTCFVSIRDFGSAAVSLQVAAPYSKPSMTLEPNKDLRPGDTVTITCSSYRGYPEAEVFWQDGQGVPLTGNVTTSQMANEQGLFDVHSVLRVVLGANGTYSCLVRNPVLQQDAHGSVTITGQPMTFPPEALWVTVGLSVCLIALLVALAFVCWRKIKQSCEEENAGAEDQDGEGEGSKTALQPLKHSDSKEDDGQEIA

Binder | EC50 [nM] | MFI
B1 | 6.29 | 496000
B2 | 77 | 539000
